The target in assay [1] is Human serum albumin (human). The experiment in a line: ELISA on coated recombinant albumin, pH 7.4, anti-human IgG1 HRP; apparent affinity. (In general: In an ELISA, binding on a coated surface is turned into a signal by an enzyme label.)
Assay [2] has as its target T1, Rat serum albumin (rat).
T1 chain: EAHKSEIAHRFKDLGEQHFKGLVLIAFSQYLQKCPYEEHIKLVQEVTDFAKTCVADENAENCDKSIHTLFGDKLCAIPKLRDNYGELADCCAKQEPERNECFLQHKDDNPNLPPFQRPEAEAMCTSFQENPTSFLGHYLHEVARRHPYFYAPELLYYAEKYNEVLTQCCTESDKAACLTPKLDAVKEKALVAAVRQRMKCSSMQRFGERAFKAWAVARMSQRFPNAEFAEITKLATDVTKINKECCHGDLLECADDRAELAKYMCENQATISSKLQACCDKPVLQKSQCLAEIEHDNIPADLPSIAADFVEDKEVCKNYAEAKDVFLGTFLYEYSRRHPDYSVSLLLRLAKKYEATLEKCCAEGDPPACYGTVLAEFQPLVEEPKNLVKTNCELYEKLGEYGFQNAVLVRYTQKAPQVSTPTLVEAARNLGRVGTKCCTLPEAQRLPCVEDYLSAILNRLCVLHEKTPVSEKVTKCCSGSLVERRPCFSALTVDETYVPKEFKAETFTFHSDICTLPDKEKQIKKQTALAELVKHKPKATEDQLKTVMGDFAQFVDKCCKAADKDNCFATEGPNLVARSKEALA
The description is as above.

In assay [3] the target is Murine serum albumin (mouse). The description is as above.
In assay [4] the target is T2, Cynomolgus monkey serum albumin (cynomolgus monkey).
T2 chain: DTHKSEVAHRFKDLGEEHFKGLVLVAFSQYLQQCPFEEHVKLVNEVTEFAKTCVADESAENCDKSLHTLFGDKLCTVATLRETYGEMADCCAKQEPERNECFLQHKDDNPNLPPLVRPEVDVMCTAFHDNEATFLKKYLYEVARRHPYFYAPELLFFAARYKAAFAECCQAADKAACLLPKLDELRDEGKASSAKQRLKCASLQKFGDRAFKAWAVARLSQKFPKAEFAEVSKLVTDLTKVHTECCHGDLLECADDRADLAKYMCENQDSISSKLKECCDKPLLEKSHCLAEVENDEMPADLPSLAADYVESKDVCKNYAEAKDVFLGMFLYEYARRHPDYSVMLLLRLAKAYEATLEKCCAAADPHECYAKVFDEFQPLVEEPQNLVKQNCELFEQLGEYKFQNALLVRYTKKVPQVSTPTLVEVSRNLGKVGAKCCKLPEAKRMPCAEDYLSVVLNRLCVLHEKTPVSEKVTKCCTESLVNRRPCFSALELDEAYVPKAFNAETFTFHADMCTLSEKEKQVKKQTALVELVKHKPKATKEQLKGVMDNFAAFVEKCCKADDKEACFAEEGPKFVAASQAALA
The assay is described as above.

In assay [5] the target is Human serum albumin (human). The experiment in a line: ELISA, albumin coated, monomeric sdAb titrated.
In assay [6] the target is T1, Rat serum albumin. The experiment in a line: ELISA, albumin coated, monomeric sdAb titrated.
In assay [7] the target is Murine serum albumin (mouse). Description: ELISA, albumin coated, monomeric sdAb titrated.
Assay [8] concerns the target T2, Cynomolgus monkey serum albumin. The experiment in a line: ELISA, albumin coated, monomeric sdAb titrated.
For assay [9], the target named is T3, IL-4R (UniProt P24394 26-232, limits assumed).
T3 construct: also called second target
Description: ELISA on coated IL-4R. As for the experimental part:
The plates were washed 3× times in 0.05% PBST (150 μL/well) and then blocked with Casein in 0.05% PBST (200 μL/well) for 2 hours at RT. The plates were washed 3× times in 0.05% PBST, and 100 μL of titrated test articles in 0.05% PBST were added to the wells of the plate (starting 100 nM, 1:3 dilutions, 11-point titration) and incubated at 4° C. for 1 hour. […] Plates were then washed again before addition of TMB substrate (100 μL/well) that was allowed to reach RT before addition to the plate. The HRP-TMB reaction was allowed to develop for approximately 10 minutes, then TMB stop buffer was added (100 μL/well) and the absorbance was measured at 450 nm on a plate reader with absorbance at 650 nm subtracted (Molecular Devices). The data were plotted and analyzed using GraphPad Prism analysis software.

The values below come from patent publication US20250277018A1 (INHIBRX BIOSCIENCES, published 2025).

Bounds are passed on as bounds.

Chain of Murine serum albumin (mouse) (chain, as listed by the source): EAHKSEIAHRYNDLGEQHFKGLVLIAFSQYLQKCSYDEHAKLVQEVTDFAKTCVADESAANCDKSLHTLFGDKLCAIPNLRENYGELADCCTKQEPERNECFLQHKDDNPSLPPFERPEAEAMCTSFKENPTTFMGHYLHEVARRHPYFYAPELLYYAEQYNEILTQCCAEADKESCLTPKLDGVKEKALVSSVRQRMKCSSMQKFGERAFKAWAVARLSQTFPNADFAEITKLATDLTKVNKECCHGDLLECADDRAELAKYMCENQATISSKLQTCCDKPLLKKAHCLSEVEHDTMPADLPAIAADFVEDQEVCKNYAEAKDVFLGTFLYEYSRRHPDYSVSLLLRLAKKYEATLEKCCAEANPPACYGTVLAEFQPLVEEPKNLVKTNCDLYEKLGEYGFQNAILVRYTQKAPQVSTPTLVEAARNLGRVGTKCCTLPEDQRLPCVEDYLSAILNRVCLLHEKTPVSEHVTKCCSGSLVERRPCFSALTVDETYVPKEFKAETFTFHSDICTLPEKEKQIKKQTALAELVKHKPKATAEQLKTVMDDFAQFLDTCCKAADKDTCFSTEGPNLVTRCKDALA

B1: cx5009, hz4A01v51 VHH-hIgG1-xELL-NNT-Fc (VHH)
VHH: EVQLVESGGGEVQPGGSLRLSCAASGFTFSTSGMVWVRQAPGKGLEWVSTISDDARITVYAESVKGRFTISRDNAKNTVYLQMNSLRAEDTAVYYCATYRAGSRIGSYEDYYRGQGTLVTVKP
notes: also called Hz4A01v51-NNT-hFc; 4A01v51-NNT-hFc
For B1, the Kd in assay [1] was roughly 0.2 nM; in assay [2] it was roughly 0.2 nM; in assay [3], roughly 0.2 nM; in assay [4] it was roughly 0.2 nM; in [5] it was less than 0.3 nM; in [6] it was less than 0.3 nM. In addition, the Kd in [7] and in assay [8] was less than 0.3 nM each time. The maximal binding in [5], in assay [6], in assay [7] and in assay [8] was greater than 90% throughout.

B2: cx12583 (VHH)
chain: GGGGDKTHTCPPCPAPGGPSVFLFPPKPKDTLMISRTPEVTCVVVDVSHEDPEVKFNWYVDGVEVHNAKTKPREEQYNSTYRVVSVLTVLHQDWLNGKEYKCKVSNKALPAPIEKTISKAKGQPREPQVYTLPPSRDELTKNQVSLTCLVKGFYPSDIAVEWESNGQPENNYKTTPPVLDSDGSFFLYSKLTVDKSRWQQGNVFSCSVMHEALHNHYTQKSLSLSPGSGGGSEVQLVESGGGEVQPGGSLRLSCAASGFTFSTSGMVWVRQAPGKGLEWVSTISDDARITVYAESVKGRFTISRDNAKNTVYLQMNSLRAEDTAVYYCATYRAGSRIGSYEDYYRGQGTLVTVKP
notes: Homodimer; also called Fc Region-GS6-VHH
As for B2, in [9], the binding result is reported as “no binding (tested: 100 nM (top of titration))”.

B3: cx12584 (VHH)
chain: GGGGDKTHTCPPCPAPGGPSVFLFPPKPKDTLMISRTPEVTCVVVDVSHEDPEVKFNWYVDGVEVHNAKTKPREEQYNSTYRVVSVLTVLHQDWLNGKEYKCKVSNKALPAPIEKTISKAKGQPREPQVYTLPPSRDELTKNQVSLTCLVKGFYPSDIAVEWESNGQPENNYKTTPPVLDSDGSFFLYSKLTVDKSRWQQGNVFSCSVMHEALHNHYTQKSLSLSPGGGSGGGSGGGSEVQLVESGGGEVQPGGSLRLSCAASGFTFSTSGMVWVRQAPGKGLEWVSTISDDARITVYAESVKGRFTISRDNAKNTVYLQMNSLRAEDTAVYYCATYRAGSRIGSYEDYYRGQGTLVTVKP
notes: Homodimer; also called Fc Region-GS12-VHH
On to B3, for which the binding result in [9] is given as “no binding (tested: 100 nM (top of titration))”.
